Measurements: IntAct's records for PubMed 21070972

B1: Cell division control protein 48 (Saccharomyces cerevisiae), P25694 (parent)
chain: MGEEHKPLLDASGVDPREEDKTATAILRRKKKDNMLLVDDAINDDNSVIAINSNTMDKLELFRGDTVLVKGKKRKDTVLIVLIDDELEDGACRINRVVRNNLRIRLGDLVTIHPCPDIKYATRISVLPIADTIEGITGNLFDVFLKPYFVEAYRPVRKGDHFVVRGGMRQVEFKVVDVEPEEYAVVAQDTIIHWEGEPINREDEENNMNEVGYDDIGGCRKQMAQIREMVELPLRHPQLFKAIGIKPPRGVLMYGPPGTGKTLMARAVANETGAFFFLINGPEVMSKMAGESESNLRKAFEEAEKNAPAIIFIDEIDSIAPKRDKTNGEVERRVVSQLLTLMDGMKARSNVVVIAATNRPNSIDPALRRFGRFDREVDIGIPDATGRLEVLRIHTKNMKLADDVDLEALAAETHGYVGADIASLCSEAAMQQIREKMDLIDLDEDEIDAEVLDSLGVTMDNFRFALGNSNPSALRETVVESVNVTWDDVGGLDEIKEELKETVEYPVLHPDQYTKFGLSPSKGVLFYGPPGTGKTLLAKAVATEVSANFISVKGPELLSMWYGESESNIRDIFDKARAAAPTVVFLDELDSIAKARGGSLGDAGGASDRVVNQLLTEMDGMNAKKNVFVIGATNRPDQIDPAILRPGRLDQLIYVPLPDENARLSILNAQLRKTPLEPGLELTAIAKATQGFSGADLLYIVQRAAKYAIKDSIEAHRQHEAEKEVKVEGEDVEMTDEGAKAEQEPEVDPVPYITKEHFAEAMKTAKRSVSDAELRRYEAYSQQMKASRGQFSNFNFNDAPLGTTATDNANSNNSAPSGAGAAFGSNAEEDDDLYS
partner: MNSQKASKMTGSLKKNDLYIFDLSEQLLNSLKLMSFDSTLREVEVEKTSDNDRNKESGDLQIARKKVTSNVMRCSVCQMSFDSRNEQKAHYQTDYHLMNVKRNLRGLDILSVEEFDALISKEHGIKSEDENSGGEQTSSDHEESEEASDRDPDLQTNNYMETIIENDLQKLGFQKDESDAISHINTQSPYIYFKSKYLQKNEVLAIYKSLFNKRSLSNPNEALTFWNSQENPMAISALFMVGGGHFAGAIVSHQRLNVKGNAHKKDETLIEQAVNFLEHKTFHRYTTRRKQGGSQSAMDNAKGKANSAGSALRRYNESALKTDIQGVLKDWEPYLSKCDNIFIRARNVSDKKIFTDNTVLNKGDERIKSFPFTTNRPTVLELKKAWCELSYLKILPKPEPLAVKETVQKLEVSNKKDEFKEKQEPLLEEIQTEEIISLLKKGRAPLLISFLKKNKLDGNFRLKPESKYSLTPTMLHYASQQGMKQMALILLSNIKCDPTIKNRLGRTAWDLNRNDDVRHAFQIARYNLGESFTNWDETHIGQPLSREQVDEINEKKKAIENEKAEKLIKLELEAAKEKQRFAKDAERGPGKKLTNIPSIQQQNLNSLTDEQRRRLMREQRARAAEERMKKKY
B2: tRNA endonuclease ANKZF1 (Mus musculus), Q80UU1 (parent)
chain: MAKPAGDAAVGSRSGELFLPSVSSSATSPAPSAAPAPASVSLLSLNGEAPLIRGLSLVSQAPGEALAWAPRTSCPGENTSSGGKVSPYSLEISEKLFCSACDQIFQNHQEQREHYKLDWHRFNLKQRLKNKPLLSASDFEQQSSTGDLSSISGSDDTDSSSEEDLLPLDEGRAESEKPNRPPGFYPHRVLFKNAQGQFLYAYRCVLGPHQIPPEKAELLLQNLQNGGPRYYVVLMAAAGHFAGAIFQGREVVAHKTFHRYTVRAKRGTAQGLQDAHGRASRSAGANLRRYNEAMLYKDVRNLLAGPIWSKALGEAETVLFRAPRSGRSLFFGGQGAPLQRDDPRLWDIPLTTRRPTFGELQRVLHKLTTLQVYDEDPREMVRFHSPETHWKPVREERKKDTEKEKTKVPSDANKPLGQDEEPLKQGSESQEEDGSEVELELVELTLGTLDLREFEVLPKRRRRRKKKERSQEQQCGAHGPLPQQPQDEPFSQPTQEVETPLDTLVYEAKAPGQPELWDTLLAACRAGEVEVLKLQLATGLVDPGVKSLLNAPLGSGGFTLLHAAAAAGRGLVVRLLLEAGADPTVQDSRARPPYTVAADKSTRNEFRRFMEKNLDAYDYNKARVPGPLTQEMEARQATRKKEQKAARRQREQQQRKQREQEEQEQEEQRRFAALSDREKRALAAERRLAAQLGAPSPPVPDSAVASAGRCWSCGVSLQGLIPFHYLDFSFCSTRCLRDHRSQAGRPSS

Variants of: B1
Conditions: with vms1_yeast VMS1, Q04311
With S565E the “effect of a mutation on the interaction” value was “decreasing interaction strength”.

Variants of: B2
Conditions: with tera_mouse Vcp
E685A;R686A;R687A was tested, and the “effect of a mutation on the interaction” value was “decreasing interaction strength”.
